US20210008161A1, “METHODS AND COMPOSITIONS FOR IMPROVED HOMOLOGY DIRECTED REPAIR” (CRISPR THERAPEUTICS AG, priority 2019, published 2021)

Tested on: CD34-expressing LT-HSPCs
Experiment: Indel formation at HBB locus by TIDE analysis
Format: cell-based, human
Conditions: RNP of Cas9 and R02 gRNA only; TIDE; FIG. 11
Protocol: Editing efficiency at the HBB locus was evaluated by measuring indel formation by TIDE analysis. […] This group had 1.7-fold reduction in INDEL frequency relative to cells treated with RNP+AAV,

B1: R02 gRNA: sgRNA targeting the HBB locus (SEQ ID NO: 17), used as RNP with Cas9 (nucleic acid)
guide: CNUNUNGCCCCACAGGGCAGUAAGUUUUAGAGCUAGAAAUAGCAAGUUAAAAUAAGGCUAGUCCGUUAUCAACUUGAAAAAGUGGCACCGAGUCGGUGCUNUNUNU
modifications: Synthetic gRNA-related, HBB sgRNA; modified_base (1)..(6) every c and u is a 2′ O-methyl phosphorothioate nucleotide; (2)..(2) n is a phosphorothioate nucleotide; (4)..(4) n is a phosphorothioate nucleotide; (6)..(6) n is a phosphorothioate nucleotide; modified_base (100)..(104) every u is a 2′ O-methyl phosphorothioate nucleotide; (101)..(101) n is a phosphorothioate nucleotide; (103)..(103) n is
With B1 the indel formation was 94%.
